Measured values: patent US6544753 (MERCK, dated 2003)

What follows are molecules tested against T1, human GALR2 (human, UniProt O43603 1-387) (assay: cell-based or functional assay).
T1 sequence: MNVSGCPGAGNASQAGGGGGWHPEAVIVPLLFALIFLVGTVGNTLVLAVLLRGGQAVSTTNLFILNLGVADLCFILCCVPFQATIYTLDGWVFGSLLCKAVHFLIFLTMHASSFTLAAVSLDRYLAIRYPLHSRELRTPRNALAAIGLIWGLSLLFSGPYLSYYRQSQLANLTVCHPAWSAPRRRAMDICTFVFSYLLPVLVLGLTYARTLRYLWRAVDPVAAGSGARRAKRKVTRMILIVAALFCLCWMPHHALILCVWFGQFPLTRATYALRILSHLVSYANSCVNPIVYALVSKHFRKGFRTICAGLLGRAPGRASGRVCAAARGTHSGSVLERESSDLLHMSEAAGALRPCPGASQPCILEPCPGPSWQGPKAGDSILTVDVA
M35 (peptide) gave an aequorin bioluminescence in 293-AEQ17 cells, EC50 of 44 nM.
Molecule M40 (peptide) has an aequorin bioluminescence in 293-AEQ17 cells, EC50 of 8.8 nM.
For TLNSAGYLLGPHAIDNHRSFSDKHGLT (peptide, UniProt P10683 35-61, looked up) [rat Gal (3-29)], the “aequorin bioluminescence in 293-AEQ17 cells, EC50” value was > 10000 nM.
WTLNSAGYLLGPHAIDNHRSFSDKHGLT (peptide, UniProt P10683 34-61, looked up) [rat Gal(2-29)] was tested, and the “aequorin bioluminescence in 293-AEQ17 cells, EC50” value was 31 nM.
